Several values for one entry are separate records, joined by “and”; a condition that tells them apart may be missing. Equal entries are not always repeated.
T1: human CD200RLa (Sino Biological, 11620-H08H) recombinant protein (human, UniProt Q6Q8B3 24-239)
T1 construct: Bought; construct not described
T1 sequence (looked up): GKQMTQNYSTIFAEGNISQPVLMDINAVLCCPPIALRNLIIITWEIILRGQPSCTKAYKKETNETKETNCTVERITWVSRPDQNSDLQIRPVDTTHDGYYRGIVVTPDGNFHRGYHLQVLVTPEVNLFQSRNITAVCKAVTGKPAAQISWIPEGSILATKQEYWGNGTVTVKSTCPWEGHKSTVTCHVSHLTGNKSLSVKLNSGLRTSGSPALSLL

T2: human CD200R1 recombinant protein (construct not stated) (human, UniProt Q8TD46 27-266, limits assumed)
T2 sequence (looked up): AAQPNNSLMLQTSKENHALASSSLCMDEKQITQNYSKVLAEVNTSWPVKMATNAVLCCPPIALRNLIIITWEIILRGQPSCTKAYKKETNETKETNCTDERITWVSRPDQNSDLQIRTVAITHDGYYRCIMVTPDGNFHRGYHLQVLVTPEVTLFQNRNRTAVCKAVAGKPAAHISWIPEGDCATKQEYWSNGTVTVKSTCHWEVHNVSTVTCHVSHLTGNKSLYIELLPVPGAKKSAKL

T3: mouse CD200R1 protein (R&D systems, 2554-CD) (mouse, UniProt Q9ES57 26-238, limits assumed)
T3 construct: Bought; construct not described
T3 sequence (looked up): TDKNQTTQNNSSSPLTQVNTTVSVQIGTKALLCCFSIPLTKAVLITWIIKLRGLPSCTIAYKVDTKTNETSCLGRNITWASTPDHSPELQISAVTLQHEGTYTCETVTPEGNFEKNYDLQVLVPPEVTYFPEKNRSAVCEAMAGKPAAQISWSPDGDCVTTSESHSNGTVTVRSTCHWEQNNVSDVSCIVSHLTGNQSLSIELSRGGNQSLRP

T4: recombinant human CD200R1 Fc chimera protein, CF (R&D systems, 3414-CD) (human, UniProt Q8TD46 27-266)
T4 construct: Bought; also called CD200R1-Fc protein; human CD200R1 Fc protein; Fc part of the bought chimera not given
T4 sequence (looked up): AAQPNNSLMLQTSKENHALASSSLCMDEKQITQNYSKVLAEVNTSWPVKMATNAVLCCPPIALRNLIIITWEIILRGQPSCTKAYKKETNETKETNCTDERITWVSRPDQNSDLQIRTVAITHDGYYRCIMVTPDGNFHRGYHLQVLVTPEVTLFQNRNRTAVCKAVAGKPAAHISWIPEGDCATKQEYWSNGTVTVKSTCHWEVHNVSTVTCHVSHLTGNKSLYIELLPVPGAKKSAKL

T5: human CD200R1 expressed on cells (Jurkat-CD200R1, U937-CD200R1, HH cells) (human, UniProt Q8TD46 25-348)
T5 construct: whole, on cells; also called HH (CRL-2105); cell surface-expressed CD200R1
T5 sequence (looked up): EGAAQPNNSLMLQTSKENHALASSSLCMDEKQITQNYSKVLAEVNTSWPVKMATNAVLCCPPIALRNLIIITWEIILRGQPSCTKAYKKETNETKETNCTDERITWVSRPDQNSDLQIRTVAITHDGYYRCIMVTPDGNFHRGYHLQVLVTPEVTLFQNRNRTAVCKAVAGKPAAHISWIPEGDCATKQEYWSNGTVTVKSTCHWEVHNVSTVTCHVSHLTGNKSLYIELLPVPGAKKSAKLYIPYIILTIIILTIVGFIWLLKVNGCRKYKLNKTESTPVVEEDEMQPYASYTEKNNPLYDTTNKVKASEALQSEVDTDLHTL

T6: Hybrid CD200R1 MH (mouse;human, UniProt Q9ES57;Q8TD46)
T6 construct: single domain; mouse D1 over human D2; also called MH hybrid domain; P001 MH domain
T6 sequence (hybrid extracellular part, looked up): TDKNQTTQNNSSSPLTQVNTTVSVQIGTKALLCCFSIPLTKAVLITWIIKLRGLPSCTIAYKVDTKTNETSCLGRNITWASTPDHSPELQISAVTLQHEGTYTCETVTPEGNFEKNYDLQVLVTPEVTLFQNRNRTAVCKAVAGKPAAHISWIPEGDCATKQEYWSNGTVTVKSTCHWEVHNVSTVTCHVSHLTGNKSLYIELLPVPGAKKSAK


Key:
[1] = target: T1, human CD200RLa (Sino Biological, …); assay: ELISA, plate-bound human CD200RLa (2 ug/mL), antibody 0.0192-300 nM, O.D 450 nm; panel 'recombinant human CD200RLa'
In short: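 Plates coated overnight (16 h, 4° C) with human or cynomolgus CD200RLa recombinant protein, blocked with 3% skim milk; bound antibody detected by TMB colour development, reaction stopped before reading.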

[2] = target: T2, human CD200R1 recombinant protein …; assay: ELISA on human CD200R1, O.D 450 nm, 0.0192-300 nM; panel 'P001_CD200R1 human 1'
Method: (§1) 96-well plates were coated with human CD200R1 (R&D systems, 3414-CD) and mouse CD200R1 protein (R&D systems, 2554-CD) at a concentration of 2 μg/mL at 4° C. for 16 hours and then were blocked with 3% skim milk.
(§2) Color was developed with a TMB substrate solution (Thermo Scientific, 34029, 1-Step™ TMB-ELISA Ultra Substrate Solution). The color reaction was stopped with stop solution (Invitrogen, SS04, ELISA Stop Solution). The absorbance was measured at an optical density of 450 nm.
(§3) The secondary engineered antibodies were evaluated by ELISA in the same manner as in Examples described above.

[3] = target: T3, mouse CD200R1 protein (R&D systems, …); assay: ELISA on mouse CD200R1, O.D 450 nm, 0.0192-300 nM; panel 'P001_CD200R1 mouse 1'
Method: as §1, §2, §3

[4] = target: T4, recombinant human CD200R1 Fc chimera …; assay: competition ELISA: antibody on coated human CD200R1-Fc, competitor rhCD200-Fc at 1 µg/mL, bound CD200 detected
Method: 96-well plates were coated with human CD200R1 (R&D systems, 3414-CD) recombinant protein at a concentration of 2 μg/mL at 4° C. for 16 hours, and blocked with 3% skim milk for 1 hour. […] The result was washed with PBST and distilled water, and the samples were bound with Pierce™ High Sensitivity Streptavidin-HRP (Thermo Scientific, 21130) at room temperature for 1 hour, and then washed again with PBST and distilled water. TMB substrate solution (Thermo Scientific, 34029, 1-Step™ Ultra TMB-ELISA substrate solution) was added to develop the color. The reaction was stopped with stop solution (Invitrogen, SS04, ELISA Stop Solution).

[5] = target: T4, recombinant human CD200R1 Fc chimera …; assay: ELISA, plate-bound human CD200R1-Fc (2 ug/mL), IgG 0.0192-300 nM, anti-human IgG F(ab')2-HRP, OD 450 nm; panel 'human CD200R1'
Method: as §1, §2

[6] = target: T3, mouse CD200R1 protein (R&D systems, …); assay: ELISA, plate-bound mouse CD200R1 (2 ug/mL), IgG 0.0192-300 nM, OD 450 nm; panel 'mouse CD200R1'
In short: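 Wells coated with antigen at 2 μg/mL (4 °C, 16 h) and blocked with 3% skim milk before IgG addition. Bound antibody developed with TMB, reaction stopped, absorbance read at 450 nm.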

[7] = target: T5, human CD200R1 expressed on cells …; assay: flow cytometry on Jurkat-CD200R1 and HH cells, 500 nM antibody in IgG1 form
Method: The cells were washed by centrifugation at 130 g for 5 minutes. The cells were seeded onto 96-well round-bottom plates (SPL, #34296) at a density of 1×10⁵ cells/well in Flow cytometry staining buffer (Invitrogen, #00-4222-26) or FACS buffer. […] After incubation for 1 hour at 4° C., the cells were treated with Alexa-647 Goat anti-human IgG (H+L) cross-adsorbed secondary antibody (Invitrogen, #A21445) and incubated at 4° C. for an additional 30 minutes. After washing twice with FACS buffer, flow cytometry analysis was performed using a Novocyte Flow cytometer (Agilent).

Hybrid CD200R1 MH = target: T6, Hybrid CD200R1 MH; assay: ELISA, plate-bound MH hybrid (1 ug/mL), antibody 0.0192-300 nM, O.D 450 nm; panel 'P001 MH domain-3)'
Method: Recombinant proteins were produced from the extracellular Ig-like V-type domain and Ig-like C2-type domain of human CD200R1, each designed as human-mouse (HM hybrid domain) and mouse-human (MH hybrid domain) recombinant proteins. A 96-well plate was coated at a concentration of 1 μg/mL with each protein at 4° C. for 16 hours and blocked with 3% skim milk. […] After color development with TMB substrate solution (Thermo Scientific, 34029, 1-Step™ Ultra TMB-ELISA Substrate Solution), the color reaction was stopped with a stop solution (Invitrogen, SS04, ELISA Stop Solution), and the absorbance was measured at an O.D. of 450 nm.

| Binder | binding result [1] | EC50 (read off the curve) [2] | binding result [3] | IC50 [4] | EC50 (read off the curve) [5] | binding result [6] | MFI normalized to P001017 (chimeric OX108), % [7] | binding result (Hybrid CD200R1 MH) |
| --- | --- | --- | --- | --- | --- | --- | --- | --- |
| P001018v26 (antibody, V domains shown, H3-Y102T, L3-R92H) VH: QVQLVQSGAEVKKPGASVKVSCKASGYTFTSYVMHWVRQAPGQGLEWMGYINPYNDDTNYNEKFKGRVTMTRDTSTSTVYMELSSLRSEDTAVYYCAREDYYGSRWGTWGQGTLVTVSS VL: DIVLTQSPASLAVSPGQRATITCRASKSVSTSGYSYMHWYQQKPGQPPKLLIYLASNLESGVPARFSGSGSGTDFTLTINPVEANDTANYYCQHSHELLTFGQGTKVEIK | no binding (tested: 300 nM) | ~2 nM and ~4 nM | binds |  |  |  |  |  |
| P001002 (IgG) (antibody, V domains shown) VH: EVQLLESGGGLVQPGGSLRLSCAASGFTFSSYAMSWVRQAPGKGLEWVSWISYDSSSKYYADSVKGRFTISRDNSKNTLYLQMNSLRAEDTAVYYCARGVVQPYLWTEFDYWGQGTLVTVSS VL: QSVLTQPPSASGTPGQRVTISCSGSSSNIGSNYVNWYQQLPGTAPKLLIYSDSHRPSGVPDRFSGSKSGTSASLAISGLRSEDEADYYCGSWDDSLSGYVFGGGTKLTVL | no binding (tested: 300 nM) |  |  | 11.5 nM | ~0.8 nM | no binding (tested: 300 nM) | > 50% |  |
| P001012 (IgG) (antibody, V domains shown) VH: EVQLLESGGGLVQPGGSLRLSCAASGFTFSGYDMSWVRQAPGKGLEWVSGISSSGGNKYYADSVKGRFTISRDNSKNTLYLQMNSLRAEDTAVYYCARAIRPCISAPCYYDDAMDVWGQGTLVTVSS VL: QSVLTQPPSASGTPGQRVTISCTGSSSNIGSNYVSWYRQLPGTAPKLLIYSDSQRPSGVPDRFSGSKSGTSASLAISGLRSEDEADYYCGSWDYSLSAYVFGGGTKLTVL | no binding (tested: 300 nM) |  |  |  |  | no binding (tested: 300 nM) |  | no binding (tested: 300 nM) |

— patent publication US20260263521A1 (AIMED BIO, published 2026)
